Source: paper PMC4148482

How the values were obtained:
[1] = target: His-tagged Hsp20 wild type (UniProt O14558); assay: peptide array overlay (IB: His), spot densitometry; conditions: typical of n = 3; parent: est. 100; read off a plot
[2] = target: Aβ1–42 labelled at the N-terminus with HiLyte Fluor 555 (Aβ555) (human) (UniProt P05067)

Substance	percent of parent (% Control (WT)) [1]	fold decrease in efficiency in disrupting the formation of Aβ555 fibrils and globular structures (self-quenching), against full-length S16D [2] [fold]
Aβ1–42 25mer peptide 1 (D1–G25; array spot) A2	77	
Hsp20 N-terminal 25-mer peptide, S16D variant (in solution)		2
Aβ1–42 25mer peptide 1 (D1–G25; array spot) A21	110	
